Assay results from patent publication US20260109764A1 (CAEDO ONCOLOGY, published 2026).
Substitutions are numbered along the chain they refer to. Values joined by “and” are separate entries in the source; they are usually repeats but may differ in a detail not shown here. Identical values can stand only once.

How the values were obtained:
[1] = target: T1, human CD47, cell-surface (on Jurkat cells, human red blood cells) (human, UniProt Q08722 19-323); experiment: flow cytometry on Jurkat cells, detection with anti-His6-FITC, four parameter curve fit
T1 construct: also called Integrin Associated protein (IAP); MER6
Method: PBS-washed cancer cell lines or RBCs were pelleted and washed with washing buffer (3% (w/v) BSA, 1% (w/v) sodium azide in PBS) and incubated with Human BD Fc Block for 10 minutes before being plated into a round-bottom 96 well plate (2.5×10⁵ cells per well). The cells were then incubated with various concentrations of CO-1 scFv, or appropriate isotype controls as indicated for 1 h on ice with slight agitation. All samples were prepared in duplicates. Cells were washed twice, resuspended in cold His staining solution (1 μg/ml His₆-FITC in washing buffer), and incubated for 30 minutes on ice with slight agitation. Cells were analyzed by flow cytometry after two washes. Excitation wavelength FITC: 488 nm, detection: 530/30 nm.
The cells were incubated with increasing concentrations of CO-1 scFv, or isotype control, followed by incubation with an anti-His, FITC secondary antibody. […] The EC₅₀ for CO-1 scFv was analyzed by four parameter […] curve fitting in GraphPad and determined to be 0.05 ng/ml.

[2] = target: T2, recombinant biotinylated CD47 (recCD47, SinoBiological 12283-H27H-B) (UniProt Q08722 19-139, biotinylated (AVI-tag)); experiment: SPR Biacore S200, biotinylated recCD47 on SA chip, scFv as analyte, single-cycle, 1:1 model, 25 C
T2 construct: Bought protein; also called recombinant CD47
Method: (§1) The affinity of CO-1 scFv to CD47 was determined via surface plasmon resonance (SPR) on a Biacore S200 system. Recombinant biotinylated CD47 was immobilized on an SA streptavidin chip to a level of 100 RU (in 10 mM NaAc pH 5.0). CO-1 scFv reacted with recombinant CD47 at gradient concentrations
(§2) A 1:1 binding model was used to fit the data. All curves are well fitted to the 1:1 model.

[3] = target: T2, recombinant biotinylated CD47 (recCD47, …); experiment: SPR Biacore S200, biotinylated recCD47 on SA chip, fusion protein as analyte, single-cycle, 1:1 model, 25 C
Method: as §1, with “The binding” for “The”, “of CO201-scFv-Fc-mono as described in Example 4” for “of CO-1 scFv”, “5.0). CO201-scFv-Fc-mono” for “5.0). CO-1 scFv”
as §2

[4] = target: T1, human CD47, cell-surface (on Jurkat …); experiment: flow cytometry on stimulated normal human B cells, FITC MFI against log µg/ml
Method: FIG. 6: Hemagglutination and binding of red blood cells (RBCs) by huCO-scFv. (A) 2% RBCs (v/v in PBS) were incubated with increasing concentrations of the indicated antibodies or fragments for 30 minutes. A small punctate circle indicates no hemagglutination, while a diffuse hazy pattern indicates hemagglutination. (B) 2% RBCs (v/v in PBS) were incubated with increasing concentrations of FITC-conjugated CO201-scFv and analyzed by flow cytometry. (C and D) B cells were isolated from buffycoats of healthy human donors using CD19 Dynabeads and stimulated with 1 μg/ml CpG and RP105 for 24 hours. (C) B cells were incubated with the indicated antibodies or fragments at increasing concentrations and analyzed for binding by flow cytometry. (D) B cells were incubated with the indicated antibodies or fragments at concentrations in μg/ml for 3 hours, followed by staining with Annexin V and 7-AAD. % PCD=Annexin V-positive cells.

[5] = target: T1, human CD47, cell-surface (on Jurkat …); experiment: flow cytometry on Jurkat cells, FITC MFI against log µg/ml
[6] = target: T1, human CD47, cell-surface (on Jurkat …); experiment: flow cytometry, FITC-conjugated scFv on Jurkat cells, FITC MFI against log µg/ml
Method: FIG. 5: Binding of huCO-scFv to Jurkat cells. Jurkat cells incubated with increasing concentrations of FITC-conjugated huCO-scFv. FITC-intensity was analyzed by flow cytometry.
DPBS-washed cancer cell lines or RBCs were pelleted and washed with washing buffer (3% (w/v) BSA, 1% (w/v) sodium azide in DPBS) and incubated with Human BD Fc Block for 10 minutes before being plated into a round-bottom 96 well plate (2.5×10⁵ cells per well). The cells were then incubated with various concentrations of FITC-conjugated huCO-scFv, or human IgG4 isotype control as indicated for 1h on ice with slight agitation. All samples were prepared in duplicates. The cells were analyzed by flow cytometry after three washes in washing buffer. Excitation wavelength FITC: 488 nm, detection: 530/30 nm.

[7] = target: T2, recombinant biotinylated CD47 (recCD47, …); experiment: SPR Biacore S200, biotinylated recCD47 on SA chip, scFv as analyte, single-cycle, 1:1 model, 25 C; remark: listed apart in the source
Method: The binding affinity of the huCO-mAbs to CD47 was determined via surface plasmon resonance (SPR) on a Biacore S200 system. Recombinant biotinylated CD47 was immobilized on an SA streptavidin chip to a level of 100 RU (in 10 mM NaAc pH5.0). […]
A 1:1 binding model was used to fit the data. All curves are well fitted to the 1:1 model. […] The affinity constant KD is calculated as kd/kₐ.

[8] = target: T1, human CD47, cell-surface (on Jurkat …); experiment: cell-based or functional assay

T1 sequence (Q08722 19-323 limits assumed): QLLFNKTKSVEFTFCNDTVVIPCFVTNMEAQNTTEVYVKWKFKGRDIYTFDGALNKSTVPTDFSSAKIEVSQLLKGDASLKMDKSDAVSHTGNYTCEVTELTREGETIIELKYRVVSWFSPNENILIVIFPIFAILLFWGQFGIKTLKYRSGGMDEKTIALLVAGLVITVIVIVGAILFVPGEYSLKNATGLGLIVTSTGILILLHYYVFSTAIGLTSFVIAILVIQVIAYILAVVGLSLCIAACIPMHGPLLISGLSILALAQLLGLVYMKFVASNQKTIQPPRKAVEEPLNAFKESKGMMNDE
T2 sequence (Q08722 19-139 limits assumed): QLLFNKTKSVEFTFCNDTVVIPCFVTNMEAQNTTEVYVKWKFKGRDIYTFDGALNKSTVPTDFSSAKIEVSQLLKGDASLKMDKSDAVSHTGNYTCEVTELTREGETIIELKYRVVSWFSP

B1: CO-1 scFv (scFv)
scFv: QIQLVQSGPELKKPGETVKISCKASGYTFTNFGMHWVKQAPGKGLKWMGWINTYTGEPTYTDDFKGRFAFSLETSASTAYLQINSLKNEDTATFFCTRGDYRYGDSWGQGTTLTVSSGGGGSGGGGSGGGGSDVVMTQTPLSLPVSLGDQASISCRSSQSLVHSNGKTYLHWYLQKPGQSPKLLIYRVSNRFSGVPDRFSGSGSGTDFTLKISRIEAEDLGVYFCSQSTHVPFTFGSGTKLEIK
notes: Murine VH and VL of mCO-1 in single chain format; Detected on cells with anti-His6-FITC, so it carries a His tag; also called CO-1 scFv fragment; scFv fragment of mCO-1
[1]
  EC50: 0.05 ng/mL
[2]
  Kd: 0.179 nM and 0.18 nM
  koff: 0.0056 s⁻¹
  kon: 3.1e+07 M⁻¹ s⁻¹

B2: CO201-scFv-Fc-mono (Fc fusion)
chain 1: QVQLVQSGSELKKPGASVKVSCKASGYTFTNFGMHWVRQAPGQGLEWMGWINTYTGEPTYTDDFKGRFVFSLDTSVSTAYLQISSLKAEDTAVYYCARGDYRYGDSWGQGTTVTVSSGGGGSGGGGSGGGGSDIVMTQTPLSLSVTPGQPASISCRSSQSLVHSNGKTYLHWYLQKPGQPPQLLIYRVSNRFSGVPDRFSGSGSGTDFTLKISRVEAEDVGVYYCSQSTHVPFTFGQGTKLEIKSKYGPPCPSCPAPEFLGGPSVFLFPPKPKDTLMISRTPEVTCVVVDVSQEDPEVQFNWYVDGVEVHNAKTKPREEQFNSTYRVVSVLTVLHQDWLNGKEYKCKVSNKGLPSSIEKTISKAKGQPREPQVYTLPPSQEEMTKNQVSLWCLVKGFYPSDIAVEWESNGQPENNYKTTPPVLDSDGSFFLYSRLTVDKSRWQEGNVFSCSVMHEALHNHYTQKSLSLSLGK
chain 2: SKYGPPCPSCPAPEFLGGPSVFLFPPKPKDTLMISRTPEVTCVVVDVSQEDPEVQFNWYVDGVEVHNAKTKPREEQFNSTYRVVSVLTVLHQDWLNGKEYKCKVSNKGLPSSIEKTISKAKGQPREPQVYTLPPSQEEMTKNQVSLSCAVKGFYPSDIAVEWESNGQPENNYKTTPPVLDSDGSFFLVSRLTVDKSRWQEGNVFSCSVMHEALHNHYTQKSLSLSLGK
notes: Knob-hole heterodimer with a single scFv, 77.3 kDa; FITC-conjugated in the flow cytometry assay on RBCs; also called huCO201-scFv-Fc-mono; huCO-scFv-Fc-mono
[3]
  Kd: 0.097 nM
  koff: 0.0027 s⁻¹
  kon: 2.8e+07 M⁻¹ s⁻¹

B3: CO-1.4 (antibody, V domains shown)
VH: QIQLVQSGPELKKPGETVKISCKASGYTFTNFGMHWVKQAPGKGLKWMGWINTYTGEPTYTDDFKGRFAFSLETSASTAYLQINSLKNEDTATFFCTRGDYRYGDSWGQGTTLTVSS
VL: DVVMTQTPLSLPVSLGDQASISCRSSQSLVHSNGKTYLHWYLQKPGQSPKLLIYRVSNRFSGVPDRFSGSGSGTDFTLKISRIEAEDLGVYFCSQSTHVPFTFGSGTKLEIK
notes: Divalent comparator antibody against CD47; also called full length IgG4 format of the CO-1 antibody; chimeric IgG4 comparator antibody
[4]
  EC50 (read off the curve): ~0.2 µg/mL
[5]
  EC50 (read off the curve): ~0.3 µg/mL

B4: CO201-scFv (scFv)
scFv: QVQLVQSGSELKKPGASVKVSCKASGYTFTNFGMHWVRQAPGQGLEWMGWINTYTGEPTYTDDFKGRFVFSLDTSVSTAYLQISSLKAEDTAVYYCARGDYRYGDSWGQGTTVTVSSGGGGSGGGGSGGGGSDIVMTQTPLSLSVTPGQPASISCRSSQSLVHSNGKTYLHWYLQKPGQPPQLLIYRVSNRFSGVPDRFSGSGSGTDFTLKISRVEAEDVGVYYCSQSTHVPFTFGQGTKLEIK
notes: FITC-conjugated in the flow cytometry assays, unconjugated in SPR; also called huCO-scFv (collective); humanized scFv version of CO201
[6]
  EC50 (read off the curve): ~2 µg/mL
[7]
  Kd: 0.061 nM
  koff: 0.00026 s⁻¹
  kon: 4.3e+06 M⁻¹ s⁻¹
[8]
  programmed cell death (PCD) of Jurkat cells, Annexin V-positive cells after 3 hours: ~60%

B5: CO209-scFv (scFv)
scFv: B4 scFv with P180S, Q182K
modifications: FITC-conjugated in the flow cytometry assays, sites not stated; unconjugated in SPR.
notes: FITC-conjugated in the flow cytometry assays, unconjugated in SPR; also called huCO-scFv (collective)
[6]
  EC50 (read off the curve): ~2 µg/mL
[4]
  EC50 (read off the curve): ~4 µg/mL
[7]
  Kd: 0.033 nM
  koff: 0.00017 s⁻¹
  kon: 5.1e+06 M⁻¹ s⁻¹
[8]
  programmed cell death (PCD) of Jurkat cells, Annexin V-positive cells after 3 hours: ~60%

B6: CO213-scFv (scFv)
scFv: B4 scFv with E46K
modifications: FITC-conjugated in the flow cytometry assays, sites not stated; unconjugated in SPR.
notes: as for B5
[6]
  EC50 (read off the curve): ~1 µg/mL
[7]
  Kd: 0.048 nM
  koff: 0.00021 s⁻¹
  kon: 4.4e+06 M⁻¹ s⁻¹
[8]
  programmed cell death (PCD) of Jurkat cells, Annexin V-positive cells after 3 hours: ~60%
